Results as given in patent publication US20260191954A1, “COMPOSITIONS AND METHODS FOR NEOADJUVANT TREATMENT IN CANCER” (INNATE PHARMA, priority 2022, published 2026).

Target: T1, human CD39, membrane-bound, as expressed on cells (human, UniProt P49961 1-510)
T1 construct: On OAW42 cells, on monocytes and B cells of patients, in patients' tumour tissue, and in tissues of human CD39 knock-in mice; also called mCD39
T1 sequence: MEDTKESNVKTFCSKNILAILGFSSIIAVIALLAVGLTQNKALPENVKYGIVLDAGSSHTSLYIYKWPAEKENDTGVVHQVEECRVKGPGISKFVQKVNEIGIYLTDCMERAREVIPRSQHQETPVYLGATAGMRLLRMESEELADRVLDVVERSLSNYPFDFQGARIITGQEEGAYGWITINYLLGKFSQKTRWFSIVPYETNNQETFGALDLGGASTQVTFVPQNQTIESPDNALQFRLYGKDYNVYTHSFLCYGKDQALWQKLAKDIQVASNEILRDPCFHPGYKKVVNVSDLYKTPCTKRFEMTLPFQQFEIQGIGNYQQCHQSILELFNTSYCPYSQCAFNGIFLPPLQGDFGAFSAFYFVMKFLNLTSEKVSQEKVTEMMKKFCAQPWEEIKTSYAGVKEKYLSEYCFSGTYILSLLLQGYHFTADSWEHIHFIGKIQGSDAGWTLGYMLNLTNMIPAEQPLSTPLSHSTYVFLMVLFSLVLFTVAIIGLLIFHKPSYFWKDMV
Experiment: indirect response PD model (inhibition on Kin) fitted to free mCD39 on monocytes of treated patients; flow cytometry, free CD39 detected with a labelled antibody having the VH and VL of IPH5201
Description: PK/PD modelling and simulation were used to guide selection of doses. IPH5201 PK data from 45 patients and PD data of free membrane CD39 (mCD39) occupancy on monocytes from 43 patients were available. A population PK model was developed with IPH5201 PK best described as a 2-compartment model with parallel linear and saturatable kinetics.
An indirect response PD model (inhibition on Kᵢₙ) was then built to describe the relationship between IPH5201 concentrations and free mCD39 on monocytes (FIG. 10). The model accurately predicted CD39free+ of monocytes (%). […] The final indirect response model was then used for parametric simulation.
To assess free CD39 on monocytes and B cells, blood samples are spiked with an antibody having the VH and VL of IPH5201 and a mouse Fc domain and labelled with a fluorochrome. A second non-competing anti-CD39 monoclonal antibody labelled with a distinct fluorochrome is used to bind to a site on CD39 distinct from the capture antibody. CD14, CD19 and CD45 are detected by incubation with anti-CD14, CD19 and CD45 monoclonal antibodies each labelled with a distinct fluorochrome. Binding is detected by flow cytometry.

IC50: 2.44 µg/mL
B1: IPH5201 (humanized anti-CD39 antibody having the respective heavy and light chain amino acid sequences of SEQ ID NOS: 10 and 11) (antibody, human IgG1, kappa, V domains shown)
VH: QVQLVQSGAEVKKPGASVKVSCKASGYTFTDYNMHWVRQAPGQRLEWIGYIVPLNGGSTFNQKFKGRATITVDTSARTAYMELSSLRSEDTAVYYCARGGTRFAYWGQGTLVTVSS
VL: DIVMTQSPDSLAVSLGERATINCRASESVDNFGVSFMYWFQQKPGQPPKLLIYGASNQGSGVPDRFSGSGSGTDFTLTISSLQAEDVAVYYCQQTKEVPYTFGGGTKVEIKR
